Assay results published in patent US20230028110A1 (ADAPTATE BIOTHERAPEUTICS, published 2023).
Changes are numbered by the printed parent chain. Numbers in names are those of the source. Where two headings read alike, the source gives them in different places. Each block holds one binder with its values, some of them ahead of it.

Tests used:
[1] = molecular target: 4-1BB on 4-1BB+ NFAT Jurkat cells (human, UniProt Q07011); assay: cell-based or functional assay
[2] = molecular target: Vδ1 chain of the γδ TCR on human Vδ1 γδ T cells (human); assay: cell-based or functional assay
[3] = molecular target: T1, L1 (DV1-GV4), soluble human Vδ1/Vγ4 γδ TCR heterodimer in leucine zipper format (human); assay: SPR (Reichert 4SPR), antibody on Protein A chip, antigen flown over
T1 construct: Biotinylated in the DELFIA ranking; also called Antigen L1 (TRDV1/TRGV4); human DV1-GV4; not shown: gamma chain: Vγ4 (TRGV4) domain on a TCR constant region, leucine zipper, histidine tag

[4] = molecular target: T2, Vδ1 chain of the γδ TCR on human Vδ1 γδ T cells (human); assay: flow cytometry on Vδ1 γδ T-cells, anti-human IgG secondary antibody, % cells bound IgG
T2 construct: whole, on cells; also called cell surface Vδ1 TCR; Vδ1-positive γδ T cells

[5] = molecular target: T2, Vδ1 chain of the γδ TCR on human Vδ1 γδ …; assay: cell-based or functional assay; remark: listed apart in the source
[6] = molecular target: T1, L1 (DV1-GV4), soluble human Vδ1/Vγ4 γδ …; assay: SPR (Reichert 4SPR), antibody on Protein A chip, antigen flown over; remark: listed apart in the source
Method: (§1) Recombinant human Vδ1 heterodimer or human FAPα was flown over the cell at a concentration of 100 nM with the following parameters: 180 s association, 480 s dissociation, flowrate 25 μL/min, running buffer PBS+0.05% Tween 20. All experiments were performed at room temperature.

[7] = molecular target: Recombinant human FAPα (human, UniProt Q12884 26-760); assay: as above
Method: as §1

[8] = molecular target: T2, Vδ1 chain of the γδ TCR on human Vδ1 γδ …; assay: flow cytometry on Vδ1 γδ T-cells, anti-human Fc secondary antibody, % IgG bound cells
Method: (§2) After washing, cells were incubated for a further 15 minutes with anti-human Fc secondary antibodies before washing and fixing. The amount of antibody bound to each cell type was determined by flow cytometry.

[9] = molecular target: T3, FAPα on FAPα+ fibroblasts (human, UniProt Q12884 1-760); assay: flow cytometry on BJ fibroblasts, anti-human Fc secondary antibody, % IgG bound cells
T3 construct: whole, on cells; also called FAPα+ target cells (BJ fibroblasts, human dermal fibroblasts)
Method: as §2

[10] = molecular target: T4, Recombinant human MSLN (human, UniProt Q13421 296-580, limits assumed); assay: SPR (Reichert 4SPR), antibody on Protein A chip, antigen flown over; column head prints FAPα
T4 construct: also called mesothelin
Method: (§3) Recombinant human Vδ1 heterodimer or human MSLN was flown over the cell at a top concentration of 100 nM with the following parameters: 180 s association, 480 s dissociation, flowrate 25 μL/min, running buffer PBS+0.05% Tween 20. All experiments were performed at room temperature.

[11] = molecular target: T1, L1 (DV1-GV4), soluble human Vδ1/Vγ4 γδ …; assay: SPR (Reichert 4SPR), antibody on Protein A chip, antigen flown over; remark: listed apart in the source
Method: as §3

[12] = molecular target: T2, Vδ1 chain of the γδ TCR on human Vδ1 γδ …; assay: flow cytometry on Vδ1 γδ T-cells, anti-human IgG secondary antibody, % IgG bound cells
Method: After washing, cells were incubated for a further 15 minutes with anti-human IgG secondary antibodies before washing and fixing. The amount of antibody bound to each cell type was determined by flow cytometry.

[13] = molecular target: T5, Her2 on Her2+ breast cancer cells (SK-BR-3, BT-474) (human, UniProt P04626 23-1255); assay: flow cytometry on SK-BR-3 cells, anti-human IgG secondary antibody
T5 construct: whole, on cells; also called ErbB-2; CD340

[14] = molecular target: T6, Cyno DV1/GV77 antigen, recombinant cynomolgus Vδ1 heterodimer (cynomolgus monkey); assay: DELFIA ELISA, cyno antigen; heat map cell of the clone
T6 construct: also called cyno TRDV1; Cyno DV1-77; not shown: delta CDR3/J, TCR constant region, zipper and tag; the whole gamma chain GV77

[15] = molecular target: T2, Vδ1 chain of the γδ TCR on human Vδ1 γδ …; assay: cell-based or functional assay; remark: listed apart in the source
[16] = molecular target: T2, Vδ1 chain of the γδ TCR on human Vδ1 γδ …; assay: flow cytometry binding to Vδ1 γδ T cells, donor ATS006; column head printed 'IC50', unit nM from the chart axis and FIG. 34D
Method: (§4) All incubation steps were performed at 4° C. and mAb binding was determined using flow cytometry to measure the median level of fluorescence. Logarithmic four parameter dose-response curves were fitted using GraphPad Prism 9. […] For Vδ1-positive γδ T cell, data is represented as the mean two donors.
(§5) A range of target cells were assayed to determine the specificity and affinity of Vδ1 mAb binding. This included expanded skin-derived Vδ1 γδ T-cells, HEK293T cells, Raji cells, and multiple leukocyte subsets within human primary blood mononuclear cells. Adherent or semi-adherent cells (skin-derived Vδ1 γδ T-cells, HEK293T) were detached from tissue culture flask and resuspended in PBS. Similarly, non-adherent cell types (Raji, PBMC), were harvested and resuspended in PBS. Cells were seeded at a final density of 100,000 cells per well in v-bottom 96-well plates. Cells underwent centrifugation and the cell pellets were resuspended in FcR blocking reagent according to the manufacturer's instructions, and incubated for 20 minutes at 4C prior to a further wash. […] To determine the quantity of mAb bound to the cell surface, the cells were then stained with a murine anti-human IgG secondary antibody, conjugated to APC (dilution: 1:100). For Vδ1 γδ T-cells, HEK293T and Raji, the cells were also stained solely with a viability dye.

[17] = molecular target: T1, L1 (DV1-GV4), soluble human Vδ1/Vγ4 γδ …; assay: DELFIA ELISA, 0.4 nM human TRDV1 antigen; heat map cell of the clone
[18] = molecular target: T1, L1 (DV1-GV4), soluble human Vδ1/Vγ4 γδ …; assay: SPR (Reichert 4SPR), antibody on Protein A chip, human Vδ1 antigen as analyte; average of two replicates on two instruments
From the text: (§6) The binding affinity of the antibodies to target (i.e. the Vδ1 chain of a γδ TCR) is established by SPR analysis using a Reichert 4SPR instrument (Reichert Technologies).
(§7) The binding interaction of Vδ1 and the affinity-matured mAbs were modelled according to Langmuir 1:1 binding.

[19] = molecular target: T2, Vδ1 chain of the γδ TCR on human Vδ1 γδ …; assay: cell-based or functional assay; remark: listed apart in the source
[20] = molecular target: T1, L1 (DV1-GV4), soluble human Vδ1/Vγ4 γδ …; assay: SPR (Reichert 4SPR), antibody on Protein A chip, Vδ1 heterodimer at 6.25-100 nM as analyte
[21] = molecular target: T6, Cyno DV1/GV77 antigen, recombinant …; assay: as above
[22] = molecular target: T1, L1 (DV1-GV4), soluble human Vδ1/Vγ4 γδ …; assay: DELFIA ELISA on antigen L1 (TRDV1/TRGV4), 1/2 dilution series of mAb
[23] = molecular target: T2, Vδ1 chain of the γδ TCR on human Vδ1 γδ …; assay: flow cytometry binding to Vδ1 γδ T cells, donor TS164; column head printed 'IC50', unit nM from the chart axis and FIG. 34D
Method: as §4, §5

[24] = molecular target: T1, L1 (DV1-GV4), soluble human Vδ1/Vγ4 γδ …; assay: DELFIA, 100 nM biotinylated L1
[25] = molecular target: T6, Cyno DV1/GV77 antigen, recombinant …; assay: SPR (Reichert 4SPR), antibody on Protein A chip
[26] = molecular target: T1, L1 (DV1-GV4), soluble human Vδ1/Vγ4 γδ …; assay: SPR (summary table)
[27] = molecular target: T1, L1 (DV1-GV4), soluble human Vδ1/Vγ4 γδ …; assay: SPR, captured IgG, human DV1-GV4 flown over
[28] = molecular target: T2, Vδ1 chain of the γδ TCR on human Vδ1 γδ …; assay: cell-based or functional assay; remark: listed apart in the source
[29] = molecular target: T1, L1 (DV1-GV4), soluble human Vδ1/Vγ4 γδ …; assay: SPR (Reichert 4SPR), antibody on Protein A chip, human Vδ1 antigen as analyte; average of two replicates on two instruments; remark: listed apart in the source
From the text: as §6, §7

[30] = molecular target: T2, Vδ1 chain of the γδ TCR on human Vδ1 γδ …; assay: cell-based or functional assay; remark: listed apart in the source
[31] = molecular target: T2, Vδ1 chain of the γδ TCR on human Vδ1 γδ …; assay: cell-based or functional assay; remark: listed apart in the source
[32] = molecular target: T1, L1 (DV1-GV4), soluble human Vδ1/Vγ4 γδ …; assay: DELFIA ELISA, human antigen; heat map cell of the clone
[33] = molecular target: T2, Vδ1 chain of the γδ TCR on human Vδ1 γδ …; assay: flow cytometry, Vδ1 γδ T cells of donor TS164, mAb titrated up to about 500 nM at 4 C, anti-human IgG detection
Method: as §4, §5

[34] = molecular target: T2, Vδ1 chain of the γδ TCR on human Vδ1 γδ …; assay: flow cytometry, Vδ1 γδ T cells of donor ATS006, mAb titrated up to about 500 nM at 4 C, anti-human IgG detection
Method: as §4, §5

T1 sequence (main, as listed by the source): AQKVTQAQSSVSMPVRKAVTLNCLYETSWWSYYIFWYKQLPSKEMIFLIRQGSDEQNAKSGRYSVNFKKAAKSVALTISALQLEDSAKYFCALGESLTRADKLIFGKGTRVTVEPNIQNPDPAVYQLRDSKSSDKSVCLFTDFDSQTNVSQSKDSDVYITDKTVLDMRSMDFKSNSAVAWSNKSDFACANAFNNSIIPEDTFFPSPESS
T6 sequence (delta, as listed by the source limits assumed): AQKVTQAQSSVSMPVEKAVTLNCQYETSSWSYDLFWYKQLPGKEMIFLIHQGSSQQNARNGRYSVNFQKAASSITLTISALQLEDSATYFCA
T2 sequence (A0A1B0GX56 22-115, stated change not applied): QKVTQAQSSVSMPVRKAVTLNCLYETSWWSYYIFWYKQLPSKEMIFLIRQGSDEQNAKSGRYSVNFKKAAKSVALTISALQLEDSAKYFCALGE
4-1BB on 4-1BB+ NFAT Jurkat cells, sequence (Q07011 24-255 limits assumed): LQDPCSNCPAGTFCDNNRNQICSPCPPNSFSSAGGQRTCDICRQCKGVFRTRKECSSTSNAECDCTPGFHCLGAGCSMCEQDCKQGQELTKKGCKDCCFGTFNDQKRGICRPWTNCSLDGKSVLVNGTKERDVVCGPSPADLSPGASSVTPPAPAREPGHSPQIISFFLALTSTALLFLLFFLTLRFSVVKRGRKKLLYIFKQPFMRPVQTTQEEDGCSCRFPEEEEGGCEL
T4 sequence (Q13421 other isoform, or with tags, fused parts or gaps limits assumed): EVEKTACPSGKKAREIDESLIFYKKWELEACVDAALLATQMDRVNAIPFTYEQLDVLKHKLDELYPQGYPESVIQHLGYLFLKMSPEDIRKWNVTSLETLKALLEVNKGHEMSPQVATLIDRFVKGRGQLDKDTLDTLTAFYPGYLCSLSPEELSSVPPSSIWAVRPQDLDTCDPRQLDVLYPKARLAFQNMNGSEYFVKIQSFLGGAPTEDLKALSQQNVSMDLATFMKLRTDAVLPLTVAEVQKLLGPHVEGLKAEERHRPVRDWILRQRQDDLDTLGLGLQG

EC50 (read off the curve), 4-1BB+ NFAT Jurkat activation assay [1]: 10 to 20 nM | IC50 (read off the curve), Vδ1 TCR downregulation, γδ T-cells with activated 4-1BB+ CD8 T-cells [2]: ~0.1 nM | Kd [3]: 1.2 nM | EC50 (read off the curve) [4]: ~0.3 nM | IC50 (read off the curve), Vδ1 TCR downregulation, γδ T-cells alone [5]: ~0.2 nM
B1: Anti-Vδ1xanti-4-1BB (ADT1-4-2xutomilumab) bispecific antibody (bispecific antibody, human IgG1, kappa)
light: DIQMTQSPPALSASVGDRVTITCRASQDINDWLAWYQHKPGKAPKLLIYDASSLESGVPLRFSGSGSGTEFTLTISSLQPDDFATYYCQQKYSAPQVTFGQGTRLEIKRTVAAPSVFIFPPSDEQLKSGTASVVCLLNNFYPREAKVQWKVDNALQSGNSQESVTEQDSKDSTYSLSSTLTLSKADYEKHKVYACEVTHQGLSSPVTKSFNRGEC
heavy: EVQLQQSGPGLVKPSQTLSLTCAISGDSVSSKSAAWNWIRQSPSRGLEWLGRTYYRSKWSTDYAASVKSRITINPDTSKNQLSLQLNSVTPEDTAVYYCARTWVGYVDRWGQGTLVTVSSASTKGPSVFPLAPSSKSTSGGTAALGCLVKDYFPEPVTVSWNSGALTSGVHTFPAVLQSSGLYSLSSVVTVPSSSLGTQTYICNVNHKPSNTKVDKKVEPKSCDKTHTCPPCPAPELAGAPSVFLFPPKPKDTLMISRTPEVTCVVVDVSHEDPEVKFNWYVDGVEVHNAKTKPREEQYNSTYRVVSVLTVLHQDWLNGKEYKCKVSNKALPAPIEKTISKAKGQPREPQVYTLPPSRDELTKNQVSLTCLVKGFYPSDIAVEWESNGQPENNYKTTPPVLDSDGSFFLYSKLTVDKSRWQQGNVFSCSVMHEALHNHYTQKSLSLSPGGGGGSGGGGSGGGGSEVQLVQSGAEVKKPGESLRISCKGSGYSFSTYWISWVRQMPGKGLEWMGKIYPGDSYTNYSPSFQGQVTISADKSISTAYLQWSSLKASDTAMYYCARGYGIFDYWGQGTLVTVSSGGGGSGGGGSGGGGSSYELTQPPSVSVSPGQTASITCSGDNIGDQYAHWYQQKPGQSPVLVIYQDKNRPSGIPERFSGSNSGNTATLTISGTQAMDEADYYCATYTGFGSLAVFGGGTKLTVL
notes: also called ADT1-4-2x 4-1BB; Vδ1-4-1BB bispecific antibody

Kd [6]: 0.26 nM | Kd [7]: 1.4 nM | EC50 (read off the curve) [8]: ~0.5 nM | EC50 (read off the curve) [9]: ~1 nM
B2: Anti-Vδ1xFAPα (ADT1-4-2x sibrotuzumab) bispecific antibody (bispecific antibody, human IgG1, kappa)
light: B1 light
heavy: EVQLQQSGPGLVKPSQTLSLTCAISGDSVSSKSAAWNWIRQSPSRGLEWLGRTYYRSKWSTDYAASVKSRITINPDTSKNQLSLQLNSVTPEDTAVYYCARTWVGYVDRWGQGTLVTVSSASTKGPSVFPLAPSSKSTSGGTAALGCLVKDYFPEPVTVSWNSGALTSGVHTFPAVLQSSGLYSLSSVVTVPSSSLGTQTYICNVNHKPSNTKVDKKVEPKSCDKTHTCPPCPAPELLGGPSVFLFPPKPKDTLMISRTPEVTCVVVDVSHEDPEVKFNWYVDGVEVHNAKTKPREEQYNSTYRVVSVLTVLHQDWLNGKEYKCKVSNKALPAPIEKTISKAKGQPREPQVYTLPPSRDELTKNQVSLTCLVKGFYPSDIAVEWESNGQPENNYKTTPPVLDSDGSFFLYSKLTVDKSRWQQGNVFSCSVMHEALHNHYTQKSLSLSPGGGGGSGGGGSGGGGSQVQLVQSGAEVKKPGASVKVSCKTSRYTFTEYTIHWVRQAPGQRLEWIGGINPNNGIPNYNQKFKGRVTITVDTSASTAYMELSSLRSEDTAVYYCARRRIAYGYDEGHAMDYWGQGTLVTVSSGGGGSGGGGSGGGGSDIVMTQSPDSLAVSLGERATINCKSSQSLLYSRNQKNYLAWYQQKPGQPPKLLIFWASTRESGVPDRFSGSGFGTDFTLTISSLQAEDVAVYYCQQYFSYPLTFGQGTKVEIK
notes: also called ADT1-4-2 × FAP alpha; Vδ1-FAPα bispecific antibody

Kd [10]: 0.87 nM | Kd [11]: 0.026 nM | EC50 (read off the curve) [12]: ~0.5 nM
B3: Anti-Vδ1xMSLN (ADT1-4-2xMSLN) bispecific antibody (bispecific antibody, human IgG1, kappa)
light: B1 light
heavy: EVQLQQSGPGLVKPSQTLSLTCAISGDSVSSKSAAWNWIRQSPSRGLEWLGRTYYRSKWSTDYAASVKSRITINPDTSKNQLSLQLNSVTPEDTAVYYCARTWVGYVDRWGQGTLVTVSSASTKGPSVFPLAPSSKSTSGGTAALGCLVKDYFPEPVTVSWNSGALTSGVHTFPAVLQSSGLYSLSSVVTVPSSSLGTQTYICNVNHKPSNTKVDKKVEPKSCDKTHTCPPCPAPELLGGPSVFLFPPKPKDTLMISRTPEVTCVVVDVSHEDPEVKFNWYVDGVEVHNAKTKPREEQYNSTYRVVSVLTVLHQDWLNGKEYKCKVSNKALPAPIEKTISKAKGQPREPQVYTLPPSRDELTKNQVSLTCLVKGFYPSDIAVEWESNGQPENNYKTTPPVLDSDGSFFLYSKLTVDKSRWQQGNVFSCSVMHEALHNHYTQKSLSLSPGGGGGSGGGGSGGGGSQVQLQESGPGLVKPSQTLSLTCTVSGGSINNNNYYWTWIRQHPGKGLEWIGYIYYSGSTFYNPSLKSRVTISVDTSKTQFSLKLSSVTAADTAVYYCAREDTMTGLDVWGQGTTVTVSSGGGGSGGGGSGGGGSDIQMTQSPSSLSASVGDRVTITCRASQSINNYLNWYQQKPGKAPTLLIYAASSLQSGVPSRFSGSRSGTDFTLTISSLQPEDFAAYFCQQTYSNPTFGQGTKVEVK
notes: also called ADT1-4-2 × MSLN; MSLN-Vδ1 bispecific antibody

binding result [13]: no binding (tested: about 300 nM) | ELISA signal (heat map) [14]: 196 | TCR downregulation IC50, soluble assay, added in solution [15]: 38.3 nM | EC50 [16]: 108 nM | ELISA signal (heat map) [17]: 1200 | Kd [18]: 149 nM | IC50 TCR DR (no THP-1) [19]: 38.2 nM | IC90 TCR DR (noTHP-1) [19]: 72.4 nM | Kd [20]: 47 nM | Kd [21]: 397 nM | EC50 (read off the curve) [22]: ~0.07 µg/mL | EC50 [23]: 576 nM | DELFIA signal at 100 nM L1 [24]: 5900 fluorescence units
B4: 1245_P02_G04 (antibody, IgG1, V domains shown)
VH: QVQLQQSGPGLVKPSQTLSLTCAISGDSVSSKSAAWNWIRQSPSRGLEWLGRTYYRSKWSTDYAASVKSRITINPDTSKNQLSLQLNSVTPEDTAVYYCARTWSGYVDVWGQGTLVTVSS
VL: DIQMTQSPPALSASVGDRVTITCRASQDINDWLAWYQHKPGKAPKLLIYDASSLESGVPSRFSGSGSGTEFTLTISSLQPDDFATYYCQQSYSTPQVTFGQGTRLEIK
notes: also called ADT1-4; parental ADT1-4

fold increase in affinity against ADT1-4 [25]: ~5 fold | Kd [20]: 3.5 nM | Kd [21]: 77 nM
B5: ADT1-4 (S74L) (antibody, V domains shown)
VH: B4 VH
VL: DIQMTQSPPALSASVGDRVTITCRASQDINDWLAWYQHKPGKAPKLLIYDASSLESGVPLRFSGSGSGTEFTLTISSLQPDDFATYYCQQSYSTPQVTFGQGTRLEIKR
notes: Captured on Protein A; also called ADT1-4 (574L)

Kd [26]: 0.08 nM | Kd [27]: 0.08 nM
B6: ADT1-4-1 (antibody, IgG1, V domains shown)
VH: B4 VH with Q1E, S104V, V107A
VL: B4 VL with S60L, S91R, Q96I
notes: IgG1

TCR downregulation (EC50 µg/ml), 1 donor only [28]: 0.35 µg/mL | DELFIA signal at 100 nM L1 [24]: 64300 fluorescence units
B7: 1245_P01_B07 (antibody, IgG1, V domains shown)
VH: EVQLLESGGGLVKPGGSLRLSCAASGFTFSDYYMSWIRQAPGKGLEWVSYISSSGSTIYYADSVKGRFTISRDNAKNSLYLQMNSLRAEDTAVYYCARENYLNAFDIWGRGTLVTVSS
VL: DIQMTQSPSSLSASVGDRVTITCRTSQSLSNYLNWYQQKPGKAPKLLIYAASSLQSGVPSRFSGSGSGTDFTLTISSLQPEDFATYYCQQSYSTPLTFGGGTKLEIK
notes: IgG1

Kd [29]: 1.04 nM | EC50 [16]: 93 nM | EC50 [23]: 196 nM | IC50 of TCR downregulation (Vδ1 TCR staining as % MFI, soluble antibody, 2 h, average of two γδ cell donors) [30]: 6.26 nM | IC50 TCR DR (no THP-1), one donor only [31]: 0.173 nM | ELISA signal (heat map) [32]: 32700
B8: ADT1-7-61 (antibody, IgG1, V domains shown)
VH: B7 VH with L5V, E99D, N100D, L102D, N103D, R110Q
VL: DIQMTQSPSSLSASVGDRVTIACRAGQSIGTYLNWYQQKPGKAPKLLIYVASSLQSGVPSRFSGSGSGTEFTLTISSLQPEDFATYYCQQSASELLTFGRGTKVEIK
notes: IgG1

EC50 (read off the curve) [33]: ~1 nM | Kd [29]: 3.78 nM | EC50 [16]: 5.15 nM | EC50 [23]: 0.952 nM | EC50 (read off the curve) [34]: ~5 nM | IC50 TCR DR (no THP-1) [31]: 0.161 nM | IC90 TCR DR (noTHP-1) [31]: 0.79 nM | ELISA signal (heat map) [32]: 37100
B9: ADT1-7-3 (antibody, IgG1, V domains shown)
VH: B7 VH with L5V, E99V, N100S, L102A, N103E, R110Q
VL: B8 VL with A92Y, E94G, L96D
notes: IgG1
